The source of these data is EP4552657A1, “RADIOPHARMACEUTICAL COMPLEXES AND COMBINATIONS” (priority 2023, dated 2025).

Data set [1] has as its system HepG2 and Hep3B2.1-7 cells. The following applies: 2 MBq/mg, 5 kBq/ml; 6 days; vs radiolabeled isotype control.
Description: Cells were seeded at an appropriate cell density in relevant cell media. One day after seeding, the radiolabeled compounds at the specific activity of 2-20 kBq/µg and radioactive concentration of 50-100 kBq/ml were titrated in parallel with a radiolabeled isotype control. Cells were incubated for 5-6 days. Cell viability was determined by cell counting using Hoechst and PI staining and analyzed on Operetta CLS High Content Analysis System (Perkin Elmer) or by ATP measurements using CellTiterGlo (Promega).
HepG2 and Hep3B2.1-7 cells were seeded at an appropriate cell density in the cell media MEM + 10% FBS. HepG2 cells have higher GPC3 expression on the cell surface than Hep3B2.1-7 cells. One day after seeding the compounds at the specific activity of 2 MBq/mg and radioactive concentration of 5 kBq/ml were titrated in parallel with a radiolabeled isotype control. Cells were incubated for 6 days and subsequentially cell viability was determined using Hoechst and PI staining and analyzed on Operetta CLS High Content Analysis System (Perkin Elmer).
Data set [2] has as its system Huh-7 hepatoma expressing GPC3. Description: In vivo efficacy in Huh-7 xenograft. The arrangement: species or system Mice. From the text: • Figure 1. […] Size-exclusion UV chromatogram of Codrituzumab-macropa. • Figure 9. […] Size-exclusion UV chromatogram of Labetuzumab-macropa. • Figure 18. […] Internalization of Labetuzumab. […] Size-exclusion UV chromatogram of Sacituzumab-macropa. • Figure 25. […] Size-exclusion UV chromatogram of Indusatumab-macropa. • Figure 30. […] Size-exclusion UV chromatogram of Telisotuzumab-macropa. • Figure 36.

Data set [3] has as its system GPC3 low-expressing hepatoma xenograft model Huh-7. The settings on record: 168h; 500 kBq/kg IV, 0,75 mg/kg total protein. How it is done: Female RJ: NRMI-Foxn1nu/nu mice were inoculated with 2 × 10^6 Huh-7 cells on the right flank. Animals were pre-treated with 200 µg/mouse unspecific IgG2a antibody 24 h prior to hot dosing.
Data set [4] addresses T1, CEACAM5 (Homo sapiens, UniProt P06731).
T1 sequence (P06731 35-702): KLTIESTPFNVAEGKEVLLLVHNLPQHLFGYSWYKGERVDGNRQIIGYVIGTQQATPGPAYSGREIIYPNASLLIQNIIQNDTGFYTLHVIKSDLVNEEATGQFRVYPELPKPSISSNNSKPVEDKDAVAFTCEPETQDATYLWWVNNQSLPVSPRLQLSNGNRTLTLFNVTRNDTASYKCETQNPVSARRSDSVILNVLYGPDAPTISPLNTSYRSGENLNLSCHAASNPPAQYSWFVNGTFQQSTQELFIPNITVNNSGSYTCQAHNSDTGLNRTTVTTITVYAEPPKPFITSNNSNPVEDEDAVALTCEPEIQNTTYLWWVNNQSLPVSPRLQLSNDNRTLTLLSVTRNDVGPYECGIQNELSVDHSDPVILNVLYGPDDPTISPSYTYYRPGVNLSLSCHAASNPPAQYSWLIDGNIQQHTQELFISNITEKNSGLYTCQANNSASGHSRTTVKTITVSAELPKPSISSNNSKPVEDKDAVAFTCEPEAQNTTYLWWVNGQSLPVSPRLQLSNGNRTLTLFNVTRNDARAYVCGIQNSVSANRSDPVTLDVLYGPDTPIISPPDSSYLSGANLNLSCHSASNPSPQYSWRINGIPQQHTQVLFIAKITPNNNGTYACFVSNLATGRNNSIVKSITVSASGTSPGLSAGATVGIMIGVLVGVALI
Description: Immunoreactive fraction (IRF), binding to CEACAM5-coated beads. The following applies: 2 kBq/µg. Here is the method:
Shortly after completion of the radiolabeling, the binding was assessed by measuring the fraction of radiolabeled antibody-chelator conjugate bound to relevant antigen coated magnetic beads (Thermo Fisher Scientific). In short, beads were placed in 2 mL Eppendorf tubes in 90 µL buffer (PBS/0.1% Tween 20/1% BSA). The radiolabeled compounds were diluted to 5 Bq/µL in buffer and 50 Bq were added to each bead-containing tube. The binding lasted for 60 min while shaking at 750 rpm at room temperature. After completion of the binding step, magnet (DynaMag-2) was used to separate the beads from […] supernatant. The radio activities in the supernatant and in the beads of each sample were measured using a high purity Germanium detector (Ortec). […] Total binding was defined as [(activity in beads […])/ (total activity)] × 100.
Shortly after completion of the radiolabeling, the binding of each sample to CEACAM5-coated M270-carboxy Dynabeads was determined.

For data set [5], the system named is C4-2, JIMT-1, T-47D, NCI-N87 and Calu-3. The following applies: 2 to 40 kBq/µg; 6 days; vs isotype control.
Description: In vitro cytotoxicity of Ac-225-ACC was determined in cell lines expressing different levels of relevant target receptors. Cells were seeded at an appropriate cell density in relevant cell media. One day after seeding, the radiolabeled compounds at the specific activity of 2-20 kBq/µg and radioactive concentration of 50-100 kBq/ml were titrated in parallel with a radiolabeled isotype control. Cells were incubated for 5-6 days. Cell viability was determined by cell counting using Hoechst and PI staining and analyzed on Operetta CLS High Content Analysis System (Perkin Elmer) or by ATP measurements using CellTiterGlo (Promega).
C4-2, JIMT-1, T-47D, NCI-N87 and Calu-3 were seeded at an appropriate cell density in the following cell media respectively: RPMI + 10% FBS + 1x MEM-NEAA + 1x HEPES + 1x Na Pyruvate; DMEM + 10% FBS; RPMI + 10% FBS + 10 µg/ml insulin; RPMI + 10% FBS; RPMI + 10% FBS. […] Cells were treated for 6 days and subsequentially cell viability was determined using CellTiterGlo (Promega).
For data set [6], the system named is LK-2 lung cancer model. Put plainly: In vivo antitumor efficacy in LK-2 model. The arrangement: species or system mice. From the text:
Female BALB/c nude mice were inoculated subcutaneously with 1×10^6 LK-2 cells. When tumors reached an average size of ~190mm^3, animals were randomized into treatment groups (n=12 per group) and treatment was started.
(**, P=0.0024. ****, […]) (Figure 28).

Data set [7] has as its target T2, human glypican-3 (Homo sapiens, UniProt P51654). Description: ELISA, binding to recombinant human glypican-3. The following applies: compared to unconjugated Codrituzumab. Here is the method:
The relevant antigen was immobilized on ELISA plate by absorption. The plate was washed (PBS with 0.1% Tween 20) and incubated with blocking buffer (PBS + 3% BSA) for 2 h ± 1 h to reduce unspecific binding. Relevant antibodies and ACCs diluted in assay buffer (PBS with 0.05% Tween 20 + 1.5% BSA). The blocking buffer was discarded, and the antibodies and ACCs and controls were applied in triplicates to the plate according to a plate set-up defined in each protocol. After incubation for 1 h ± 30 min at RT, the plate was washed. A horse radish peroxidase (HRP)-conjugated secondary antibody binding specifically to the primary mAb (anti-human IgG-HRP) was added to the plate. After incubation for 1 hour ± 30 min at RT, the plate was washed. A chromogenic substrate (2,2'-azino-bis (3-ethylbenzothiazoline-6-sulphonic acid) (ABTS)), for HRP leading to the formation of a green color was added to the plate and used for detection. The absorbance of the colored reaction product was measured with an absorbance plate reader, e.g. EnVision 2103 Multilabel Reader from Perkin Elmer, or iMark Microplate Absorbance Reader from Bio-Rad.
Absorbance against the log of the antibody concentration was plotted on the GraphPad Prism software. […]
For orientation: ELISA stands for enzyme-linked immunosorbent assay.

Data set [8] has as its target T2, human glypican-3. Put plainly: Flow cytometry, cell surface binding on Hep3B2 cells. The arrangement: Hep3B2 cells expressing human glypican-3; endogenous in cells; host or cells: Hep3B2. The settings on record: compared to unconjugated Codrituzumab. Here is the method:
(§1) The in vitro binding properties of antibody-chelator conjugates were assessed in various relevant cell lines and compared to their corresponding unconjugated antibody. Briefly, samples were diluted in buffer (PBS/3% FBS) and added to relevant cell lines. After completion of the binding step (60 min at 4°C), the cells were washed and incubated with secondary antibody conjugated with phycoerythrin to detect antibodies containing a human IgG Fc region. After 60 min at 4°C, the cells were washed, and fluorescence on the cells was determined by flow cytometry using Guava EasyCyte 8HT (Luminex).
Cell surface binding of Codrituzumab-macropa was compared to unconjugated Codrituzumab and was investigated by flow cytometry using Hep3B2 cells expressing human glypican-3 (Figure 11).
For orientation: In flow cytometry, cells or beads pass a laser one at a time.

The target in data set [9] is T3, human FolRa (Homo sapiens, UniProt P15328).
T3 construct: OUMS-23 and T-47D cells expressing human FolRa; endogenous in cells; host or cells: OUMS-23, T-47D
Put plainly: Flow cytometry, cell surface binding on OUMS-23 and T-47D cells. The following applies: compared to the unconjugated antibody. How it is done: as §1
Cell surface binding of Farletuzumab-macropa and Farletuzumab-DOTA was compared to unconjugated Farletuzumab and investigated by flow cytometry using OUMS-23 and T-47D cells expressing human FolRa (Figure 43).
Cell surface binding of Mirvetuximab-macropa and Mirvetuximab-DOTA was compared to unconjugated Mirvetuximab and investigated by flow cytometry using OUMS-23 and T-47D cells expressing human FolRa (Figure 47).

Data set [10] has as its target GUCY2C (Homo sapiens, UniProt P25092). Put plainly: Flow cytometry, cell surface binding on CHO-GUCY2C cells. The following applies: compared to unconjugated Indusatumab. Further details: expressed in transfected cells; host or cells: CHO. How it is done:
as §1
Cell surface binding of Indusatumab-macropa was compared to unconjugated Indusatumab and investigated by flow cytometry using CHO-GUCY2C cells expressing human GUCY2C (Figure 31).

Data set [11] has as its target T1, CEACAM5. Description: Flow cytometry, cell surface binding on MKN-45 and HT-55 cells. Further details: MKN-45 and HT-55 cells expressing human CEACAM5; endogenous in cells; host or cells: MKN-45, HT-55. The following applies: compared to unconjugated Labetuzumab. How it is done: as §1
Cell surface binding of Labetuzumab-macropa was compared to unconjugated Labetuzumab and investigated by flow cytometry using MKN-45 and HT-55 cells expressing human CEACAM5 (Figure 19).

The nature of data set [12]: Chelation of bismuth-213 by iTLC after Ac-225 labelling. The settings on record: measured immediately and on Day 1 and Day 2 at room temperature. The format is physicochemical. Here is the method: In brief, an iTLC paper impregnated with a silica gel plate was cut to obtain 11 cm × 1 cm strips. Application point (1 cm), cut point (4 cm) and end of run point (10 cm) was marked and 2 µl of TAC was applied on to iTLC strips. The strips were developed in 3 mL mobile phase (0.1 M Citrate in 0.9%(v/v) NaCl pH 5.5) in LSC vials. […] When the liquid front had reached the marked end point, the strips were removed from the vials and placed on an aluminum foil to dry. The strips were cut in two at 4 cm: the shorter "application" half (A) and the longer "front" half (F). Each part was carefully folded and placed at the bottom of scintillation vials. […] The radiochemical purity (% RCP) of the samples (defined as [(radioactivity of application section)/(total radioactivity on strip)] × 100) was calculated. Table 2: Radiochemical purity (% RCP) of samples included in this invention.
Pelgi-macropa labeling was performed for 60 min at room temperature the two DOTA compounds were labeled at 60°C for 60 min. The percentage chelation of Bi-213 was determined using iTLC and measured on the Germanium Detector using the specific energy of Bi-213. After initial radiolabelling, compounds were measured immediately and on Day 1 and Day 2 after incubation at room temperature. […]

Data set [13] has as its target T4, human TROP2 (Homo sapiens, UniProt P09758).
T4 construct: JIMT-1, MCF-7, T-47D and ZR-75-1 cells expressing human TROP2; endogenous in cells; host or cells: JIMT-1, MCF-7, T-47D, ZR-75-1
T4 sequence (P09758 27-323): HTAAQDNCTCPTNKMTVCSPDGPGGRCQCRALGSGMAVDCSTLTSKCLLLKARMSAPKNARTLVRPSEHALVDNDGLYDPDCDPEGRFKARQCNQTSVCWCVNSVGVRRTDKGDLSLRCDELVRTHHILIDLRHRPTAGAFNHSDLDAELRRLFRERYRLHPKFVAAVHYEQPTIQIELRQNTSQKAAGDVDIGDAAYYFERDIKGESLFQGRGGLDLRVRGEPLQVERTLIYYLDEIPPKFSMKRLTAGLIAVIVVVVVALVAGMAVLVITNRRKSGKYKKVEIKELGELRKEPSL
Put plainly: Flow cytometry, cell surface binding on JIMT-1, MCF-7, T-47D and ZR-75-1 cells. The following applies: compared to unconjugated Sacituzumab. Here is the method: as §1

T3 sequence (P15328 25-257): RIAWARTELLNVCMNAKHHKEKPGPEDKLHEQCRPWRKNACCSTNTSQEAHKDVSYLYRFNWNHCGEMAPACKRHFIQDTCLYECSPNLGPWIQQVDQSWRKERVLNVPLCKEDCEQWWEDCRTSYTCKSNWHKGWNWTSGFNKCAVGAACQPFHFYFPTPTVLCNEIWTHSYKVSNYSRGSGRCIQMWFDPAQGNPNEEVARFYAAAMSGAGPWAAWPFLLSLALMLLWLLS

Take “Ac-225-macropa-Codrituzumab: Ac-225 macropa complex bound to the anti-GPC3 monoclonal antibody Codrituzumab”: the cytotoxicity entry in [1] is “strong and specific cytotoxicity”. Moreover, the anti-tumor activity entry in data set [2] (500 kBq/kg single dose IV, repeat dose 250 kBq/kg on day 25, compared to isotype control) is reported as “significantly higher anti-tumor activity”. In addition, in data set [2] (during the course of the study), the body weight loss result is “No body weight loss”. Further, the tumor uptake result in data set [3] is “significantly higher tumor uptake at 168h compared to Ac-225-macropa-isotype-control”.

As to Ac-225-macropa-Labetuzumab, the IRF in [4] (33 µg beads) is recorded as 43%; in data set [4] (100 µg beads), 88%; in data set [4] (333 µg beads) it was 97%.

Regarding “Ac-225-macropa-Sacituzumab: Ac-225 macropa complex bound to the anti-TROP2 monoclonal antibody Sacituzumab”, the cytotoxicity entry in [5] was “strong and specific cytotoxicity”. Also, the tumor growth inhibition entry in [6] (100 or 200 kBq/kg, i.v., single dose day 0) is on record as “strong tumor growth inhibition at both doses tested”. Further, the “Antitumor activity compared to Trodelvy” value in data set [6] (Trodelvy 20 mg/kg i.v. day 0,7,14) is “significantly improved as compared to Trodelvy”.

Consider Codrituzumab-DOTA, for which the EC50 entry in data set [7] is on record as “higher EC50 than unconjugated Codrituzumab”.

Take Codrituzumab-macropa: in [8], the EC50 entry is reported as “comparable EC50 as unconjugated Codrituzumab”.

Farletuzumab-DOTA [reference compound]: in data set [9], the EC50 entry is reported as “higher EC50 than unconjugated Farletuzumab in both cell lines”.

In the case of Farletuzumab-macropa, the EC50 result in data set [9] was “comparable EC50 in both cell lines as unconjugated Farletuzumab”.

As for Indusatumab-macropa, the EC50 result in [10] is given as “comparable EC50 as unconjugated Indusatumab”.

In the case of Labetuzumab-macropa, the EC50 entry in data set [11] is recorded as “comparable EC50 as unconjugated Labetuzumab”.

Regarding Mirvetuximab-DOTA [reference compound], in data set [9], the EC50 entry is on record as “higher EC50 than unconjugated Mirvetuximab in OUMS-23 cells”.

Consider Mirvetuximab-macropa, for which, in data set [9], the EC50 result is recorded as “comparable EC50 in both cell lines as unconjugated Mirvetuximab”.

On to “Pelgi-macropa: actinium-225 complexed to a macropa chelator covalently linked to the fully human PSMA-targeting antibody pelgifatamab (CAR 0.8)”, for which the “chelation of Bismuth-213” value in data set [12] was “chelated by macropa”.

Turning to Sacituzumab-macropa, in [13], the EC50 result was “comparable EC50 as unconjugated Sacituzumab”.

As for “pelgifatamab-DOTA: pelgifatamab-DOTA (CAR 12.7) labeled with Actinium-225”, the “chelation of Bismuth-213” value in data set [12] was “not chelated to the same extent with DOTA”.
